Assay results from patent US20100028995A1, “Tetranectin Trimerizing Polypeptides” (Anaphore, Inc., priority 2004, published 2010).

Legend:
[1] = Pharmacokinetic analysis of trimeric IL1Ra proteins in male Lewis rats after i.v. injection (plasma ELISA); format: in vivo; settings: for AUC / AUC protein/AUC KINERET ® / Half life / Half life protein/Half life KINERET ® / relative increase in AUC compared to KINERET: rat, in vivo, iv, 100 mg/kg; for half life after i.v. injection: single i.v. dose 100 mg/kg
Procedure: The pharmacokinetic profile of these three constructs polypeptides were analysed in Lewis rats after intravenous (i.v.) injections. The profiles obtained were compared to the pharmacokinetic profile of KINERET® in the same experiment. The pharmacokinetic study was conducted using four male Lewis rats per group, and the constructs that were used were FL IL-1Ra, I10 IL-1Ra, V17 IL-1Ra and KINERET®, Single i.v. doses of 100 mg/kg were given to the animals. The test compound was dissolved in vehicle (4.4 mM NaCitrate, pH 6.5, 93.8 mM NaCl, 0.33 mM EDTA, 0.7 g TWEEN®-80) and administered through the tail vein (vena sacralis media) or the hind paw vein (vena saphena).
Blood was then collected from four animals per time-point at baseline (zero hours) and 0.5, 1, 2, 4, 8, 12, 24, 48, 72 h post dosing. Blood samples of approximately 100 μl were collected from the tip of the tails in Microtainers™. Plasma was collected and transferred into polypropylene tubes. Plasma samples were then stored at <−70° C. until measurements were performed. Animals were then sacrificed by CO2 inhalation and the carcasses were discarded without pathological examination. The IL-1Ra compound levels and KINERET® levels in plasma were then determined by ELISA.
The average body weight of each rat was 250 grams. Assuming that the rat average blood volume was 16.5 mL a theoretical maximum initial concentration of the compounds of 1,500,000 ng/mL was calculated after i.v. injection. This starting level was used as starting value for the analysis. No observations of side effects or changes in animal well being were observed.
Following blood sampling at the above indicated time points, an ELISA assay was used to measure the injected protein in the blood samples. Based on these ELISA results, area under the curve (AUC) was used as a measure of drug exposure and the plasma half life were calculated using standard software.

[2] = system: IL-1 induction of IL-8 in U937 cells; test: Inhibition of IL-1 induction of IL-8 in U937 cells; format: cell-based; settings: based on several in vitro efficacy assays as well as Biacore assays
Procedure: GG-TripV-IL-1ra (Trip V-IL1Ra), GG-TripK-IL-1ra (Trip K-IL1Ra), GG-TripT-IL-1ra (Trip T-IL1Ra) and CII-H6-GrB-GG-TripT-IL-1ra (Trip Q-IL1Ra) were further analysed for their ability to inhibit IL-1 induction of IL-8 in U937 cells.
Due to buffer effects in the assay, at the highest protein concentration used (100 μg/mL) IL-8 production increases instead of further decreasing. Based on several in vitro efficacy assays as well as Biacore assays, it was determined that TripT IL1Ra was the best compound based on blocking and binding efficacy as well as production yields.
Three of the trimeric IL1Ra polypeptides described in the previous examples were chosen for pharmacokinetic analysis. The differences in the constructs were in the N-terminus of the trimerization domain: full length (FL), first nine amino acids truncated (I10) and the first 16 amino acids truncated (V17). The 10 construct represents a naturally occurring deletion variant of the trimerization domain and lacks the O-glycosylation site at Thr 4. The V17 derivative represents a deletion of the first exon encoding the trimerization domain and lacks a characterized heparin binding site. This site is also partially removed in the I10 construct.

STZ-induced diabetes = test: Streptozocin (STZ)-induced diabetes model; format: in vivo, C57BL/6J male mice; settings: for reduction of blood glucose levels: daily i.p. dosing at both 100 and 30 mg/kg, FIG. 12
Procedure: STZ (Sigma Aldrich) was administered once daily for five successive days at 50 mg/kg i.p. to fasted C57BL/6J male mice. The mice gradually developed higher levels of blood glucose from Day 1 to Day 4. The levels rose from […] during the STZ induction period. Five days (Day 4) after the last STZ dosing, the mice were randomly distributed into 10 treatment groups each containing 10 mice in good condition. Treatment started on this day, before onset of diabetes and continued beyond the onset.
The study period was 28 days and the mice were weighed once weekly during the treatment period. Blood glucose levels were measured every other day during the study period in order to monitor development of diabetes. A droplet of whole blood was collected by tail vein bleeding and placed on an Ascensia ELITE® blood glucose test strip and analyzed with an Ascensia ELITE® blood glucose meter (Bayer). The values were recorded, and x-fold increase in any given group compared to levels at treatment initiation was calculated. Clinical symptoms were observed daily or as appropriate in groups where adverse symptoms occurred.

[3] = in vivo; cited from earlier work
[4] = system: type II collagen arthritis; format: in vivo, Female Lewis rats
Procedure: Female Lewis rats with 4-day established type II collagen arthritis were treated subcutaneously (SC), daily (QD) on arthritis days 1-3 with Vehicle (10 mM phosphate buffer pH 7.4), or equimolar amounts of IL-1ra administering either monomeric IL-1ra (100 mg/kg KINERET®), or trimerized IL1ra (120 mg/kg Met-I10-TripT-IL1ra, or 120 mg/kg GG-V17-TripT-IL1ra). In order to have only one set of controls, all rats in the QD groups were dosed with the respective vehicle (10 mM phosphate buffer pH 7.4, or sodium citrate buffer pH 6.5 for KINERET®) at the 2nd and 3rd dosings to keep manipulations constant. Animals were terminated on arthritis day 4. Efficacy evaluation was based on ankle caliper measurements, expressed as area under the curve (AUC), terminal hind paw weights and body weights (Bendele et al 2000, Arthritis+Rheumatism 43:2648-2659). All animals survived to study termination. […] No vocalization occurred with any other injections.
Animals (8/group for arthritis, 4/group for normal), housed 4/cage, were anesthetized with Isoflurane and received subcutaneous/intradermal (SC/ID) injections with 300 μl of Freund's Incomplete Adjuvant (Difco, Detroit, Mich.) containing 2 mg/ml bovine type II collagen (Elastin Products, Owensville, Mo.) at the base of the tail and 2 sites on the back on days 0 and 6. Dosing by subcutaneous route (QD at 24 hour intervals) was initiated on arthritis day 1 and continued through day 3.
Rats were weighed on days 0-4 of arthritis, and caliper measurements of ankles were taken every day beginning on day 0 of arthritis (study day 9). After final body weight measurement, animals were euthanized, and hind paws were transected at the level of the medial and lateral malleolus and weighed (paired).

[5] = SC QD days 1-3, 100 mg/kg KINERET, 120 mg/kg trimerized IL1ra, vs vehicle treated disease controls

Row | Substance | AUC [1] | AUC protein/AUC KINERET ® [1] | Half life [1] | Half life protein/Half life KINERET ® [1] | relative increase in AUC compared to KINERET [1] | half life after i.v. injection [1] | blocking and binding efficacy [2] | reduction of blood glucose levels (STZ-induced diabetes) | half life in humans [3] | Change in body weight increased toward normal [4, 5] | Reduction of ankle diameter AUC [4, 5] | Reduction of final paw weight [4, 5] | vocalization during the injection process (subcutaneous irritation) ([4]; rat, in vivo, sc) | blood glucose efficacy relative to daily dosing of 100 mg/kg KINERET (STZ-induced diabetes; twice weekly i.p. dosing of 100 mg/kg)
1 | V17 IL1Ra: trimeric IL1Ra polypeptide, first 16 amino acids of the trimerization domain truncated (V17), TripT fusion (SEQ ID NO: 32) | 2177.781 µg·h/mL | 5.08 | 69 min | 58 | five-fold | about 69 minutes | – | – | – | – | – | – | – | –
2 | FL IL1Ra: trimeric IL1Ra polypeptide with full length (FL) trimerization domain, TripT fusion to IL-1Ra (SEQ ID NO: 24) | 809.292 µg·h/mL | 1.89 | 20 min | 17 | two-fold | – | best compound | – | – | – | – | – | – | –
3 | KINERET®: monomeric IL-1ra [reference compound] | 428.414 µg·h/mL | 1 | 1.2 min | 1 | – | about 1.2 minutes | – | marked reduction | 240 to 360 min | 54% | 34% | 61% | vocalized during the injection process | –
4 | I10 IL1Ra: trimeric IL1Ra polypeptide, first nine amino acids of the trimerization domain truncated (I10), TripT fusion (SEQ ID NO: 28) | 1637.866 µg·h/mL | 3.82 | 54 min | 45 | – | – | – | marked reduction | – | – | – | – | – | equally effective
